The experiment deals with E. coli DNA sliding clamp β (Escherichia coli (strain K12), UniProt P0A988, maleimide-Atto647N on a single cysteine residue (position not given)). In words: CoSMoS single-molecule TIRF co-localization (dwell time 14.2 s on clamp-DNA); β clamp loaded by the γ clamp loader (ATP) onto end-blocked primer-template DNA; Pol IIIcore present as competitor.
Sequence of E. coli DNA sliding clamp β (P0A988 whole entry): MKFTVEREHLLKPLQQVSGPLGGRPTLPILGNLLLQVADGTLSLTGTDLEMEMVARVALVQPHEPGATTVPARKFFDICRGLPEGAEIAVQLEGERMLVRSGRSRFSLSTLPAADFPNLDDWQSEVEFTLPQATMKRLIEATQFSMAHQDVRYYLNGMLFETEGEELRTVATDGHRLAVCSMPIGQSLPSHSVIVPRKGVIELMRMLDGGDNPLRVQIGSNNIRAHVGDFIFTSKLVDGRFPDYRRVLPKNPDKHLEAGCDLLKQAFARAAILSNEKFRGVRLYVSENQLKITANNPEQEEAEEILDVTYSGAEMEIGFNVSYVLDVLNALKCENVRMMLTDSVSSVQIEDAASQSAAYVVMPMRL

B1: E. coli translesion DNA polymerase Pol IV, wild type (protein)
chain: MRKIIHVDMDCFFAAVEMRDNPALRDIPIAIGGSRERRGVISTANYPARKFGVRSAMPTGMALKLCPHLTLLPGRFDAYKEASNHIREIFSRYTSRIEPLSLDEAYLDVTDSVHCHGSATLIAQEIRQTIFNELQLTASAGVAPVKFLAKIASDMNKPNGQFVITPAEVPAFLQTLPLAKIPGVGKVSAAKLEAMGLRTCGDVQKCDLVMLLKRFGKFGRILWERSQGIDERDVNSERLRKSVGVERTMAEDIHHWSECEAIIERLYPELERRLAKVKPDLLIARQGVKLKFDDFQQTTQEHVWPRLNKADLIATARKTWDERRGGRGVRLVGLHVTLLDPQMERQLVLGL
modifications: Atto 565 (CoA-linked) conjugated by Sfp to the N-terminal Ybbr tag
With B1, the binding result was “binds”.

The values above are taken from PMC5731819 (2017).
